Assay [1] addresses microtubules (MTs) of cultured rat hippocampal neurons (rat (endogenous in hippocampal neurons)) (UniProt P68370). Nature of the assay: FRAP fitted with a reaction-diffusion simulation.
Assay [2] has the same target. Nature of the assay: FRAP fitted with a reaction-diffusion-advection simulation.
For assay [3] the target is unchanged. Nature of the assay: FRAP fitted with a reaction-diffusion simulation. The source holds these as a separate data set.

The source of these data is article doi:10.1101/2023.04.26.538370.

The term Kd denotes the concentration at which binding is half-saturated. A higher Kd goes with weaker binding. As for “GFP-MAP2B expressed in cultured rat hippocampal neurons (from UniProt P11137-1 1-1827) (natural protein)”, in assay [1], the Kd was 1000 nM. This lies in the single-digit micromolar range.
“GFP-MAP2C, wild type (pAcGFP-His-MAP2C), expressed in cultured rat hippocampal neurons (from UniProt P11137-2 1-471) (natural protein)”: the dissociation constant (Kd) is 3000 nM in assay [2], 4500 nM in assay [1] and 1000 nM in assay [3].
